Measurements taken from patent publication US20210147486A1 (VIB VZW, published 2021).
Where a chain is given by its changes, count along the chain named.

Assays:
[1] = target: T1, CsgG Y51S/N55A/F56Q/N91R/K94Q/R97W-del(V105-I107) pore (Escherichia coli, UniProt P0AEA2 16-277); assay: pore 7; complex made by incubating pore and peptide; DNA translocation, signal:noise
T1 chain: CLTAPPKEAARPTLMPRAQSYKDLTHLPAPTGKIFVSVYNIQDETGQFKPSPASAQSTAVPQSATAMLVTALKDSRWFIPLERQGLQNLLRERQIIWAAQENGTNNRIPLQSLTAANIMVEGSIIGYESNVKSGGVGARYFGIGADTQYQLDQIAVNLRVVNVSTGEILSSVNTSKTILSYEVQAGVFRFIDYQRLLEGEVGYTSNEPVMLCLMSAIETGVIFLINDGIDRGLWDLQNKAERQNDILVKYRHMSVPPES

[2] = target: T2, CsgG Y51A/N55I/F56Q/N91R/K94Q/R97W-del(V105-I107) pore containing the C terminal strep tag (Escherichia coli, UniProt P0AEA2 16-277); assay: pore 2; complex made by incubating pore and peptide; DNA translocation, signal:noise
T2 construct: N551 read as N55I; also called Y51A/N551/F56Q/N91R/K94Q/R97W-del(V105-I107) (so in the source); not shown: C-terminal Strep tag
T2 chain: T1 chain with S51A, A55I

[3] = target: T3, CsgG Y51A/F56Q/N91R/K94Q/R97W-del(V105-I107) pore containing the C terminal strep tag (Escherichia coli, UniProt P0AEA2 16-277); assay: pore 1; complex made by incubating pore and peptide; DNA translocation, signal:noise
T3 construct: not shown: C-terminal Strep tag
T3 chain: T1 chain with S51A, A55N

[4] = target: T4, CsgG Y51A/F56V/N91R/K94Q/R97W-del(V105-I107) pore (Escherichia coli, UniProt P0AEA2 16-277); assay: pore 6; complex made by incubating pore and peptide; DNA translocation, signal:noise
T4 chain: T1 chain with S51A, A55N, Q56V

[5] = target: T5, CsgG Y51A/F56A/N91R/K94Q/R97W-del(V105-I107) pore containing the C terminal strep tag (Escherichia coli, UniProt P0AEA2 16-277); assay: pore 4; complex made by incubating pore and peptide; DNA translocation, signal:noise
T5 construct: not shown: C-terminal Strep tag
T5 chain: T1 chain with S51A, A55N, Q56A

[6] = target: T6, CsgG Y51T/N55V/F56Q/N91R/K94Q/R97W-del(V105-I107) pore containing the C terminal strep tag (Escherichia coli, UniProt P0AEA2 16-277); assay: pore 9; complex made by incubating pore and peptide; DNA translocation, signal:noise
T6 construct: not shown: C-terminal Strep tag
T6 chain: T1 chain with S51T, A55V

[7] = target: T7, CsgG Y51A/F56I/N91R/K94Q/R97W-del(V105-I107) pore containing the C terminal strep tag (Escherichia coli, UniProt P0AEA2 16-277); assay: pore 5; complex made by incubating pore and peptide; DNA translocation, signal:noise
T7 construct: F561 read as F56I; also called Y51A/F561/N91R/K94Q/R97W-del(V105-I107) (so in the source); not shown: C-terminal Strep tag
T7 chain: T1 chain with S51A, A55N, Q56I

[8] = target: T8, CsgG Y51A/N55V/F56Q/N91R/K94Q/R97W-del(V105-I107) pore containing the C terminal strep tag (Escherichia coli, UniProt P0AEA2 16-277); assay: reconstitution of purified pore with synthetic peptide; SDS-PAGE after heating
T8 construct: also called Y51A/F56Q/N55V/N91R/K94Q/R97W-del(V105-I107); not shown: C-terminal Strep tag
T8 chain: T1 chain with S51A, A55V

[9] = target: T9, CsgG Y51S/N55V/F56Q/N91R/K94Q/R97W-del(V105-I107) pore containing the C terminal strep tag (Escherichia coli, UniProt P0AEA2 16-277); assay: pore 8; complex made by incubating pore and peptide; DNA translocation, signal:noise
T9 construct: not shown: C-terminal Strep tag
T9 chain: T1 chain with A55V

Measured: binding result

GTMTFQFRNPNFGGNPNNGAFLLNSAQAQNSYKDP [CsgF-(1-35) synthetic peptide]
binds: [1] | [2] | [3] | [4] | [5] | [6] | [7] | [8] | [9]
